Drawing on PMC9239988 (Nature Communications, 2022), this text covers stoichiometry N for 3 substances.

The target in experiment [1] is Tick-borne encephalitis virus (TBEV) soluble envelope protein E (sE) (Tick-borne encephalitis virus, strain Neudoerfl). Kind of experiment: SEC-MALS.
For experiment [2] the target is unchanged. The experiment in a line: crystal structure.
For experiment [3], the target named is TBEV prMe-linker-sE single-chain protein (tick-borne encephalitis virus strain Neudoerfl) (UniProt P14336). The experiment in a line: crystal structure; uncleaved single-chain prMe-linker-sE; PDB 7QRF.
Experiment [4] deals with TBEV prMe-linker-sE single-chain construct (Tick-borne encephalitis virus, strain Neudoerfl). Kind of experiment: crystal structure; prMe-linker-sE single chain, crystallisation pH 3.5, PDB 7QRF.

In the case of “Tick-borne encephalitis virus (TBEV) soluble envelope protein E (sE) (domain or fragment)”, the stoichiometry N in experiment [1] and in experiment [2] was 2 throughout.

“TBEV prMe-linker-sE single-chain protein (from UniProt P14336 2-401)”: in experiment [3], the stoichiometry N was found to be 2.

“TBEV prMe-linker-sE single-chain construct”: the stoichiometry N in experiment [4] was determined as 2.
